Target: the molecule itself
Test: X-ray crystal structure, 1.9 A, space group C2221
Excerpt: Programs, MOSFLM and SCALA (CCP4) were used in the data processing of the detected diffraction pattern and intensity data.

B1: GFP-like fluorescent protein from Chiridius poppei, CpYGFP (recombinant, wild type) (other)
chain: MTTFKIESRIHGNLNGEKFELVGGGVGEEGRLEIEMKTKDKPLAFSPFLLSHCMGYGFYHFASFPKGTKNIYLHAATNGGYTNTRKEIYEDGGILEVNFRYTYEFNKIIGDVECIGHGFPSQSPIFKDTIVKSCPTVDLMLPMSGNIIASSYARAFQLKDGSFYTAEVKNNIDFKNPIHESFSKSGPMFTHRRVEETHTKENLAMVEYQQVFNSAPRDM
modifications: G55-Y56-G57 cyclised and oxidised to the p-hydroxybenzylideneimidazolinone fluorescent moiety
notes: Expressed in E. coli from pET101-NFP, purified and crystallised; In the crystal (space group C2221, PDB 2DD7) it is seen as a dimer; also called recombinant CpYGFP; wild-type CpYGFP
Does B1 bind?
Result: binds

Reference: patent US20090318673A1 (NEC SOFT, published 2009)
